Source: PMC9966811, “Comparison of Glyphosate-Degradation Ability of Aldo-Keto Reductase (AKR4) Proteins in Maize, Soybean and Rice” (International Journal of Molecular Sciences, 2023)

Tests used:
Test in all cases: purified protein
Details in all cases: NADPH 0.1 mM, pH 7.4, 25 °C, 10 mM beta-mercaptoethanol
purified protein [1] = substrate: O=Cc1ccccc1; assay type: biochemical, Oryza sativa
purified protein [2] = substrate: O=Cc1ccccc1; assay type: biochemical, Zea mays
purified protein [3] = substrate: O=Cc1ccccc1; assay type: biochemical, Echinochloa colona

B1: OsAKR4-1 (Oryza sativa Japonica Group) (protein)
chain: MAKHFVLNTGAKIPSVGLGTWQSDPGVVGDAVYAAVKAGYRHIDCARMYKNENEVGIALKKLFEEGVVKREDLFITSKLWCDCHAPEDVPESLDKTLSDLQLEYLDLYLIHWPFRVKKGSGISNTEDYIPPDIPSTWGAMEKLYDSGKSRAIGVSNFSSKKLGDLLAVACVPPAVDQVECHPGWQQTKLHNFCQSTGVHLSAYSPLGSPGSTWMNSNVLKESVIISIAEKLGKTPAQVALHWNIQMGHSVLPKSVTEERIKQNIDVYDWSIPEDLLVKFSEIKQVRLLRGDVIVNPHSVYKTHEELWDGEI
notes: full CDS from leaf cDNA in pET32a (vector tag, about 50 kD), E. coli BL21, Ni-NTA
- Km (purified protein [1]): 2476 ± 540 µM
- kcat (purified protein [1]): 0.676 ± 0.0363 s⁻¹

B2: ZmAKR4 (Zea mays) (protein)
chain: MARHFVLNTGAKIPSVGLGTWQSDPGVVGNAVYAAVKAGYRHIDCARVYGNEKEIGLALKKLFEEGVVKREDLFITSKLWNDHHAPEDVPEALNDSLNDLQLEYLDLYLIHWPFRVKKGTNTSPENFVTPDFPATWGAMEKLYDAGKARAIGVSNFSSKKLGDLLAVARVPPAVDQVECHPGWQQTKLHSFCQSTGVHLTAYSPLGSPGTTWMNGNVLKEPIIISIAEKLGKTSAQVALRWNIQMGHSVLPKSTNEERIKQNLDVYDWSIPDDLLAKFSEIKQARLLRGNFIVNPESVYKTHEELWDGEL
notes: as for B1
- Km (purified protein [2]): 1060 ± 290 µM
- kcat (purified protein [2]): 0.7522 ± 0.0293 s⁻¹

B3: EcAKR4 (Echinochloa colona) (protein)
chain: MARHFVLNTGAKIPSVGLGTWQSDPGVVGDAVYAAVKAGYRHIDCARVYGNEKEIGLALKKLFEEGVVKREDLFITSKLWNDHHAPEDVPEALNESLKDLQLDYLDLYLIHWPFRVKKGTNTSPENFITPDIPATWGAMEKLYDAGKARAIGVSNFSSKKLGDLLAVARVPPAVDQVECHPGWQQTKLHNFCQSTGVHLSAYSPLGSPGTTWMNGNVLKEPVIISIAEKLGKTPAQVALRWNIQMGHSVLPKSTNEERIKQNLDVYDWSIPDDLLAKFSEIKQARLLRGNFIVNPQSVYKTHEELWDGEL
notes: full CDS from leaf cDNA in pET32a as printed (about 40 kD on gel), E. coli BL21, Ni-NTA
- Km (purified protein [3]): 870 ± 250 µM
- kcat (purified protein [3]): 0.7052 ± 0.0253 s⁻¹
